{"source": "patent US11491212", "proteins": {"B1": {"name": "FIXa-K247N/N249S/R318Y/R338E/T343R/R403E/E410N (protein)", "chain 1": "not shown", "chain 2": "not shown"}, "B2": {"name": "FIX of SEQ ID NO:394, with the replacements R318Y/R338E/T343R (activated form, FIXa) (protein)", "chain 1": "not shown", "chain 2": "not shown"}, "B3": {"name": "FIXa-K247N/N249S/R338E/T343R/R403E (protein)", "chain 1": "not shown", "chain 2": "not shown"}, "B4": {"name": "FIXa-R318Y/R338E/T343R/E410N (protein)", "chain 1": "not shown", "chain 2": "not shown"}, "B5": {"name": "FIXa-R318Y/R338E/E410N (protein)", "chain 1": "not shown", "chain 2": "not shown"}, "B6": {"name": "FIXa-K293A/R338A/R403A (protein)", "chain 1": "not shown", "chain 2": "not shown"}, "B7": {"name": "FIXa-K228N/K247N/N249S (protein)", "chain 1": "not shown", "chain 2": "not shown"}, "B8": {"name": "FIXa-R318Y/R338E/T343R (activated CB 2679d, FIX of SEQ ID NO:394) (protein)", "chain 1": "not shown", "chain 2": "not shown"}}, "key": {"[1]": {"biological_target": "Factor X (FX), active site titrated and DFP/EGR-cmk treated zymogen, P00742", "sequence (P00742 whole entry, looked up)": "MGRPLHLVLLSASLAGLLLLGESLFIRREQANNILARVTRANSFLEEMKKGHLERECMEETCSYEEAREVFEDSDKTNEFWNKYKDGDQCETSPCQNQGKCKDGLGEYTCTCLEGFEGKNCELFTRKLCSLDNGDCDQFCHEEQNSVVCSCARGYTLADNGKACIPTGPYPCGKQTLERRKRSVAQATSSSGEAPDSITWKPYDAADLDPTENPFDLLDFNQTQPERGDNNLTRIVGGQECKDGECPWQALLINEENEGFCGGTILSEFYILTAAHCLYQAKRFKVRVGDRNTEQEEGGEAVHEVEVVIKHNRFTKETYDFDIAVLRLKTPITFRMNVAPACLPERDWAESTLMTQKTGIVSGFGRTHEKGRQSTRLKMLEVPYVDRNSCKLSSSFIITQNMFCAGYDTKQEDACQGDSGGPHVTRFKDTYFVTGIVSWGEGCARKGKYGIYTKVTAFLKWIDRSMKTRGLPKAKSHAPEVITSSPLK"}, "[2]": {"biological_target": "Factor VIIIa (FVIIIa), P00451", "sequence (P00451 other isoform, or with tags, fused parts or gaps)": "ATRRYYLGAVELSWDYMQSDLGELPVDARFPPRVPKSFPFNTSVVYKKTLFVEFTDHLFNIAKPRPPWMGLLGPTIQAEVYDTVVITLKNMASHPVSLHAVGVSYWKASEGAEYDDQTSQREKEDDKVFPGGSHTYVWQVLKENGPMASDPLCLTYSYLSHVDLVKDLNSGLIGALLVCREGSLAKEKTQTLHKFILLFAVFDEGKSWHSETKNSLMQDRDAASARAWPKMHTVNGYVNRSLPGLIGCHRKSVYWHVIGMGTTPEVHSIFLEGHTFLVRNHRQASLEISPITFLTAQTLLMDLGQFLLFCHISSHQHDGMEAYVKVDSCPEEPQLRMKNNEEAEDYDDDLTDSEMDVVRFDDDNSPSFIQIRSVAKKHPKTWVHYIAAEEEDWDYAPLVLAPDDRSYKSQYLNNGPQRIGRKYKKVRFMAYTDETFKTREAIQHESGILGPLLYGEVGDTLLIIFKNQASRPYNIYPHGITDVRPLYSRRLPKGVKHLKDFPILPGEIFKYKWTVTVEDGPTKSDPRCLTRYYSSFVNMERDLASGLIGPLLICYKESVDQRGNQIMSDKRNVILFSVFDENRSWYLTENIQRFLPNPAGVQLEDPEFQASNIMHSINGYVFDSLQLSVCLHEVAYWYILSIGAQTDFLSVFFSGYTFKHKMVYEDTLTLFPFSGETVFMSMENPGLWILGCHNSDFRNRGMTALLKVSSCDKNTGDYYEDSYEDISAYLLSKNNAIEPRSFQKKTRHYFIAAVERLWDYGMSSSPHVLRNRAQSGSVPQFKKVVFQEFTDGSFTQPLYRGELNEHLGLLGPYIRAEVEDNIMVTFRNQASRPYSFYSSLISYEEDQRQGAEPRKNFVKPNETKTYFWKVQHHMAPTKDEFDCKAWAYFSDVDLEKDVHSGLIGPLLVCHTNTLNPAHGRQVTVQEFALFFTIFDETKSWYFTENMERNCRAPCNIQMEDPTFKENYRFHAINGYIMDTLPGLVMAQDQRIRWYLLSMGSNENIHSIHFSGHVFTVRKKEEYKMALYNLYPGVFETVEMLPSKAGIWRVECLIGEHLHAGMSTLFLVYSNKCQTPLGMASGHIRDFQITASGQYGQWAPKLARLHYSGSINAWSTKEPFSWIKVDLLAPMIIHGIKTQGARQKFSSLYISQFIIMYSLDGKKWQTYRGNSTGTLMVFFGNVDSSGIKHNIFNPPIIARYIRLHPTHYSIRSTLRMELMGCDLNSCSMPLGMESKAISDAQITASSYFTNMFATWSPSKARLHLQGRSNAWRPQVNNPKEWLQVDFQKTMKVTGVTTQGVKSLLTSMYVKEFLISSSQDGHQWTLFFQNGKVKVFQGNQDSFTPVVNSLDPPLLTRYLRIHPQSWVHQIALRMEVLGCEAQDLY"}, "[3]": {"biological_target": "plasma purified human AT-III (antithrombin III), in complex with low molecular weight heparin"}}, "data": [{"protein": "B1", "values": [{"measurement": "catalytic activity (kcat/KM for activation of FX)", "setting": "[1]", "value": "improved activity when combined with other mutations"}, {"measurement": "kcat/KM", "setting": "Factor X, P00742", "value": "3.8e+08", "unit": "M⁻¹ s⁻¹"}]}, {"protein": "B2", "values": [{"measurement": "FIX activity (mean) at 5 ng/mL FVIIIa, Test 1", "setting": "[2]", "value": 278}, {"measurement": "FIX activity (mean) at 10 ng/mL FVIIIa, Test 2", "setting": "[2]", "value": 479}, {"measurement": "FIX activity (mean) at 15 ng/mL FVIIIa, Test 3", "setting": "[2]", "value": 622}, {"measurement": "Fold increase after FVIIIa addition (5 ng/mL), Test 1", "setting": "[2]", "value": 225, "unit": "fold"}, {"measurement": "Fold increase after FVIIIa addition (10 ng/mL), Test 2", "setting": "[2]", "value": 384, "unit": "fold"}, {"measurement": "Fold increase after FVIIIa addition (15 ng/mL), Test 3", "setting": "[2]", "value": 486, "unit": "fold"}, {"measurement": "Ratio (CB2679d vs BeneFIX) of FIX activity at 5 ng/mL FVIIIa", "setting": "[2]", "value": 2}, {"measurement": "Ratio (CB2679d vs BeneFIX) of FIX activity at 10 ng/mL FVIIIa", "setting": "[2]", "value": 2}, {"measurement": "Ratio (CB2679d vs BeneFIX) of FIX activity at 15 ng/mL FVIIIa", "setting": "[2]", "value": 2}, {"measurement": "Cofactor-Dependent Indirect kcat/KM (M-1s-1), FX activation", "setting": "Factor X (FX), P00742", "value": "1.2e+08", "unit": "M⁻¹ s⁻¹"}, {"measurement": "Fold Increase over BeneFIX FIX (kcat/KM, FX activation)", "setting": "Factor X (FX), P00742", "value": 2.8, "unit": "fold"}, {"measurement": "Pro-coagulant Activity, Fold Change (in vitro)", "setting": "Factor X (FX), P00742", "value": 2.8, "unit": "fold"}]}, {"protein": "B3", "values": [{"measurement": "catalytic activity (kcat/KM for activation of FX)", "setting": "[1]", "value": "improved activity when combined with other mutations"}, {"measurement": "KM", "setting": "Factor X, P00742", "value": 0.0263, "unit": "µM"}, {"measurement": "kcat", "setting": "Factor X (FX), P00742", "value": 14.6, "unit": "s⁻¹"}]}, {"protein": "B4", "values": [{"measurement": "catalytic activity (kcat/KM for activation of FX)", "setting": "[1]", "value": "displayed some of the greatest increases in catalytic activity"}, {"measurement": "kcat/KM", "setting": "Factor X, P00742", "value": "3.4e+08", "unit": "M⁻¹ s⁻¹"}, {"measurement": "KM", "setting": "Factor X (FX), P00742", "value": 0.0164, "unit": "µM"}]}, {"protein": "B5", "values": [{"measurement": "catalytic activity (kcat/KM for activation of FX)", "setting": "[1]", "value": "displayed some of the greatest increases in catalytic activity"}]}, {"protein": "B6", "values": [{"measurement": "KM of FX activation by FIXa in the Xase complex (FVIIIa, PC/PS vesicles, Ca2+); fluorogenic Spectrafluor FXa assay", "setting": "Factor X, P00742", "value": 0.0654, "unit": "µM"}, {"measurement": "KM", "setting": "Factor X (FX), P00742", "value": 0.0654, "unit": "µM"}, {"measurement": "K0.5-mut/K0.5-wt (against Catalyst Biosciences WT FIXa), AT-III/LMWH", "setting": "[3]", "value": 16.9, "unit": "fold"}]}, {"protein": "B7", "values": [{"measurement": "catalytic activity (kcat/KM for activation of FX)", "setting": "[1]", "value": "demonstrated close to wild-type activity"}, {"measurement": "% of WT kcat/KM (against Catalyst Biosciences WT FIXa)", "setting": "Factor X (FX), P00742", "value": 83, "unit": "%"}, {"measurement": "kcat/KM for activation of FX by FIXa in the Xase complex (FVIIIa, PC/PS vesicles, Ca2+), fluorogenic Spectrafluor FXa read-out", "setting": "Factor X (FX), P00742", "value": "3.8e+07", "unit": "M⁻¹ s⁻¹"}]}, {"protein": "B8", "values": [{"measurement": "catalytic efficiency for the activation of FX", "setting": "[1]", "value": "approximately 3-fold enhanced catalytic efficiency for the activation of FX"}]}]}
